Test results taken from US20030133912A1 (published 2003).

T1: Human coxsackie-adenovirus receptor (CAR) expressed on CHO cells (human, UniProt P78310 20-365)
T1 construct: whole, on cells; also called hCAR; AdhCAR-transfected CHO cells
T1 sequence: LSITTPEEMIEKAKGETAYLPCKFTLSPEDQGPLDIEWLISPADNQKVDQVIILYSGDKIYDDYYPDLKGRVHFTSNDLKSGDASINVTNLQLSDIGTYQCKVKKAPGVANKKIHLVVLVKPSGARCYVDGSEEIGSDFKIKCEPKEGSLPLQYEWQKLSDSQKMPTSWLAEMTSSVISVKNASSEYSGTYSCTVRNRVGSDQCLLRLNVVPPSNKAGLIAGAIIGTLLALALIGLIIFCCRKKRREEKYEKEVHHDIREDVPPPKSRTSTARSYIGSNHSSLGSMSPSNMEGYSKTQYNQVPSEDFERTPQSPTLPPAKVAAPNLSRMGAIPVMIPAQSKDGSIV


Key:
[1] = molecular target: T1, Human coxsackie-adenovirus receptor …; test: 3H-labelled virus binding to CHO cells with or without hCAR, 1 h on ice
[2] = molecular target: T2, Soluble human transferrin receptor, purified extracellular domain (human, UniProt P02786 89-760); test: phage display panning on immobilised hTfR extracellular domain, three rounds
T2 construct: extracellular domain; Gift material; also called hTfR; soluble hTfR
Description: Enzyme-linked immunosorbent assay (ELISA) plates were coated with soluble hTfR, and bound phage were eluted by a low-pH buffer. Eluted phage were amplified in E. coli K91 and subsequently screened again for binding to the immobilized hTfR. In separate experiments, bound phage were eluted with purified transferrin holoenzyme. Three rounds of screening-amplification were done for each type of elution.
Phage screening. Ten microliters of amplified nonapeptide phage library (a generous gift from Al Jesaitis, Montana State University) was screened against the purified extracellular domain of hTfR (kindly provided by Martin Lawrence, Harvard University) coated on 96-well microtiter plates in 100 μl of 0.05 M carbonate buffer (pH 9.6). In the first panning, hTfR was coated at 100 μg/ml. Subsequent pannings were done with decreasing concentrations of hTfR for increased stringency (10 and 1 μg/ml for the second and third pannings, respectively). Bound phage were eluted with low-acid buffer (0.1 M glycine, pH 2.2) or ligand (iron-loaded human transferrin; Sigma-Aldrich) in TBS buffer (50 mM Tris-Cl, pH 7.5; 150 mM NaCl). After three successive rounds of panning and amplification, clones were picked and sequenced as described elsewhere.

[3] = molecular target: T1, Human coxsackie-adenovirus receptor …
[4] = molecular target: T2, Soluble human transferrin receptor, …; test: pull-down of fiber lysate with soluble hTfR on anti-hTfR antibody 128.1 beads, Western blot with 4D2.5

T2 sequence (P02786 89-760): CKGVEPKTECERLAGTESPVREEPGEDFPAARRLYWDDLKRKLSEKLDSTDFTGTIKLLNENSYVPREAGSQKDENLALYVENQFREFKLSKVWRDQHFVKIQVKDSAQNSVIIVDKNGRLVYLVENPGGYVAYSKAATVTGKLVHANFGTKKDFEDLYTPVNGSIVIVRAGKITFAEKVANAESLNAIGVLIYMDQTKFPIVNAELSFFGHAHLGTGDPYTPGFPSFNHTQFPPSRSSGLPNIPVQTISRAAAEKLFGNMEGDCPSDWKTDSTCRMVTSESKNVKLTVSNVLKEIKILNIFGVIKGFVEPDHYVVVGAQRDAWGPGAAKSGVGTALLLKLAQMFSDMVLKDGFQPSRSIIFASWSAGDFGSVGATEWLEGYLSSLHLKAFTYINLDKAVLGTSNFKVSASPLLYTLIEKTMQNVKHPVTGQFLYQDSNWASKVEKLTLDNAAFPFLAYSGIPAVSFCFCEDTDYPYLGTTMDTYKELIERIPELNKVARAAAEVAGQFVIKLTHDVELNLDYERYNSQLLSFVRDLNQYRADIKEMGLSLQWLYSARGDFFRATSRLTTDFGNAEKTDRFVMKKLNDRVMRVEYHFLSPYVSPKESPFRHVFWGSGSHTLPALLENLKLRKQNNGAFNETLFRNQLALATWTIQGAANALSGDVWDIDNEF

Row | Binder | binding result [1] | binding result [2] | further results
1 | Chimeric Ad5/30 fiber (Ad5 tail, Ad30 shaft and knob) on virus Ad5GFPf30 (other, also called Ad5RSVeGFPf30; AdGFPf30) MKRARPSEDTFNPVYPYDTETGPPTVPFLTPPFVSPNGFQESPPGVLSLKLADPIAITNGDVSLKVGGGLTVEQDSGNLSVNPKAPLQVGTDKKLELALAPPFDVRDNKLAILVGDGLKVIDRSISDLPGLLNYLVVLTGKGIGNEELKNDDGSNKGVGLCVRIGEGGGLTFDDKGYLVAWNNKHDIRTIWTTLDPSPNCKIDIEKDSKLTLVLTKCGSQILANVSLIIVNGKFKILNNKTDPSLPKSFNIKLLFDQNGVLLENSNIEKQYLNFRSGDSILPEPYKNAIGFMPNLLAYAKATTDQSKIYARNTIYGNIYLDNQPYNPVVIKITFNNEADSAYSITFNYSWTKDYDNIPFDSTSFTFSYIAQE | no binding | – | –
2 | Adenovirus type 30 (Ad30) fiber on wild-type Ad30 virus (other, Tested as 3H-labelled wild-type Ad30 virions; also called Ad30 wildtype; Ad30 (VR-273)) MSKRLRVEDDFNPVYPYGYARNQNIPFLTPPFVSSDGFKNFPPGVLSLKLADPIAITNGDVSLKVGGGLTVEQDSGNLSVNPKAPLQVGTDKKLELALAPPFDVRDNKLAILVGDGLKVIDRSISDLPGLLNYLVVLTGKGIGNEELKNDDGSNKGVGLCVRIGEGGGLTFDDKGYLVAWNNKHDIRTIWTTLDPSPNCKIDIEKDSKLTLVLTKCGSQILANVSLIIVNGKFKILNNKTDPSLPKSFNIKLLFDQNGVLLENSNIEKQYLNFRSGDSILPEPYKNAIGFMPNLLAYAKATTDQSKIYARNTIYGNIYLDNQPYNPVVIKITFNNEADSAYSITFNYSWTKDYDNIPFDSTSFTFSYIAQE | no binding | – | –
3 | KWKLHGHIK [Phage displaying peptide KWKLHGHIK] | – | binds | –
4 | AIAKKHKWN [Phage displaying peptide AIAKKHKWN] | – | binds | –
5 | GKGPKWMR [Phage displaying peptide GKGPKWMR] | – | binds | –
6 | Adenovirus type 5 (Ad5) fiber, wild type (other, also called Ad5GFP; Ad5RSVeGFP) MKRARPSEDTFNPVYPYDTETGPPTVPFLTPPFVSPNGFQESPPGVLSLRLSEPLVTSNGMLALKMGNGLSLDEAGNLTSQNVTTVSPPLKKTKSNINLEISAPLTVTSEALTVAAAAPLMVAGNTLTMQSQAPLTVHDSKLSIATQGPLTVSEGKLALQTSGPLTTTDSSTLTITASPPLTTATGSLGIDLKEPIYTQNGKLGLKYGAPLHVTDDLNTLTVATGPGVTINNTSLQTKVTGALGFDSQGNMQLNVAGGLRIDSQNRRLILDVSYPFDAQNQLNLRLGQGPLFINSAHNLDINYNKGLYLFTASNNSKKLEVNLSTAKGLMFDATAIAINAGDGLEFGSPNAPNTNPLKTKIGHGLEFDSNKAMVPKLGTGLSFDSTGAITVGNKNNDKLTIWTTPAPSPNCRLNAEKDAKLTLVLTKCGSQILATVSVLAVKGSLAPISGTVQSAHLIIRFDENGVLLNNSFLDPEYWNFRNGDLTEGTAYTNAVGFMPNLSAYPKSHGKTAKSNIVSQVYLNGDKTKPVTLTITLNGTQETGDTTPSAYSMSFSWDWSGHNYINEIFATSSYTFSYIAQE | – | – | fold increase in bound particles with CAR expression [3]: 3.6 fold; binding result [4]: no binding
